The source of these data is patent US20200071412A1 (ROCKEFELLER UNIVERSITY, published 2020).

For assay [1], the target named is human FcγRIIa-H131 (human) (UniProt P12318). Briefly: Fc variant affinity for Fcγ receptor; method not stated.
Assay [2] has as its target human FcγRIIa-R131 (human) (UniProt P12318). The assay is described as above.
Assay [3] addresses human FcγRIIb (human) (UniProt P31994). The description is as above.
Assay [4] concerns the target T1, human FcγRIIa-H131 (human, UniProt P12318 34-217, limits assumed).
T1 construct: also called hCD32a/FcγRIIa-H131
T1 sequence (looked up): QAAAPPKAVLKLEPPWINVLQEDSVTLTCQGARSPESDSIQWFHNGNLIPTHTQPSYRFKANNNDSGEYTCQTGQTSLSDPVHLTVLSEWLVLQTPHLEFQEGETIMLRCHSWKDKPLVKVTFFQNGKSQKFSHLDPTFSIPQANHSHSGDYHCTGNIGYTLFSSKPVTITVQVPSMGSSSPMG
The assay can be described thus: BLI (FORTEBIO Octet), %Rmax; supernatant 5F11-45-V9-DT-sup; receptor hCD32a/FcγRIIa-H131.

The target of assay [5] is T1, human FcγRIIa-H131. Briefly: BLI (FORTEBIO Octet), %Rmax; supernatant 12D6-24-V9-DT-sup; receptor hCD32a/FcγRIIa-H131.

Sequence of human FcγRIIb (human) (P31994 43-217 limits assumed): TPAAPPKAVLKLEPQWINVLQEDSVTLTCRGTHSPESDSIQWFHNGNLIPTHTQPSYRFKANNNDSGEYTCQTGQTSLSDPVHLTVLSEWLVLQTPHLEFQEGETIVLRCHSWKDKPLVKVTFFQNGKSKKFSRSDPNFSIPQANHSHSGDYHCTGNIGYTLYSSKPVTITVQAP

On to “Fc sequence variant IgG1f (antibody with human IgG1f constant domain)”, for which the Kd in assay [1] is 530 nM; in assay [2], 850 nM; in assay [3] it was 3900 nM.
As for Fc sequence variant P238D (antibody), the dissociation constant Kd in assay [3] was found to be 950 nM.
Regarding Fc sequence variant SE (antibody), the values for the Kd in assay [1], in assay [2] and in assay [3] were 520 nM, 22 nM and 98 nM, respectively.
For the molecule Fc sequence variant SELF (antibody), in assay [2], the Kd turned out to be 2 nM.

B1: 5F11-45-V9-DT-sup (antibody, human IgG1, kappa)
heavy chain: QVQLVQSGAEVKKPGSSVKVSCKASGYTFTDLSMHWVRQAPGQGLEWMGYITPSSGYTAYNQKFKGKTTLTADKSTSTAYMELSSLRSEDTAVYYCARLILQRGAYWGQGTLVTVSSASTKGPSVFPLAPSSKSTSGGTAALGCLVKDYFPEPVTVSWNSGALTSGVHTFPAVLQSSGLYSLSSVVTVPSSSLGTQTYICNVNHKPSNTKVDKRVEPKSCDKTHTCPPCPAPELLGDDSVFLFPPKPKDTLMISRTPEVTCVVVDVSHETGEVKFNWYVDGVEVHNAKTKPREEQYNSTYRVVSVLTVLHQDWLNGKEYKCKVSNKALPRPIEKTISKAKGQPREPQVYTLPPSREEMTKNQVSLTCLVKGFYPSDIAVEWESNGQPENNYKTTPPVLDSDGSFFLYSKLTVDKSRWQQGNVFSCSVMHEALHNHYTQKSLSLSPG
light chain: DIVLTQSPDSLAVSLGERATINCRASKNVDSYGNSFMHWYQQKPGQPPKLLIYRASNLESGVPDRFSGSGSGTDFTLTISSLQAEDVAVYYCQQSNEDPLTFGQGTKLEIKRTVAAPSVFIFPPSDEQLKSGTASVVCLLNNFYPREAKVQWKVDNALQSGNSQESVTEQDSKDSTYSLSSTLTLSKADYEKHKVYACEVTHQGLSSPVTKSFNRGEC
notes: Tested as a supernatant of antibody producing cells; also called 5F11-45 V9 D270T
For the molecule B1, in assay [4], the binding result is “no binding (tested: 10 µM)”.

B2: 12D6-24-V9-DT-sup (antibody)
heavy: QVQLVQSGAEVKKPGASVKVSCKASGYTFTGYNMNWVRQAPGQGLEWMGNIDPYYGNTNYNQKFKGRVTMTTDTSTSTAYMELRSLRSDDTAVYYCARLGLQLYALDYWGQGTTVTVSSASTKGPSVFPLAPSSKSTSGGTAALGCLVKDYFPEPVTVSWNSGALTSGVHTFPAVLQSSGLYSLSSVVTVPSSSLGTQTYICNVNHKPSNTKVDKRVEPKSCDKTHTCPPCPAPELLGDDSVFLFPPKPKDTLMISRTPEVTCVVVDVSHETGEVKFNWYVDGVEVHNAKTKPREEQYNSTYRVVSVLTVLHQDWLNGKEYKCKVSNKALPRPIEKTISKAKGQPREPQVYTLPPSREEMTKNQVSLTCLVKGFYPSDIAVEWESNGQPENNYKTTPPVLDSDGSFFLYSKLTVDKSRWQQGNVFSCSVMHEALHNHYTQKSLSLSPG
light: DIVMTQTPLSLPVTPGEPASISCRSSQSLVHSNANTYLHWYLQKPGQSPQLLIYKLTNRFFGVPDRFSGSGSGTDFTLKISRVEAEDVGVYYCSQSIHVPWTFGGGTKVEIKRTVAAPSVFIFPPSDEQLKSGTASVVCLLNNFYPREAKVQWKVDNALQSGNSQESVTEQDSKDSTYSLSSTLTLSKADYEKHKVYACEVTHQGLSSPVTKSFNRGEC
notes: Tested as a supernatant of antibody producing cells; also called 12D6-24 V9 D270T; copies: 2 + 2
As to B2, the binding result in assay [5] was “no binding (tested: 10 µM)”.

As usually defined, the Kd is the constant that tells how readily two partners part at equilibrium. A high value points to lower affinity.
